Assay results reported in US20040028607.

T1: 9-amino acid synthetic alpha-tubulin peptide MPSD(AcK)TIGG, acetylated on lysine-40
T1 chain: MPSDXTIGG

B1: recombinant human SIRT2 (6xHis-tagged, with factor Xa cleavage site, purified from E. coli) (protein)
chain: MAEPDPSHPLETQAGKVQEAQDSDSDSEGGAAGGEADMDFLRNLFSQTLSLGSQKERLLDELTLEGVARYMQSERCRRVICLVGAGISTSAGIPDFRSPSTGLYDNLEKYHLPYPEAIFEISYFKKHPEPFFALAKELYPGQFKPTICHYFMRLLKDKGLLLRCYTQNIDTLERIAGLEQEDLVEAHGTFYTSHCVSASCRHEYPLSWMKEKIFSEVTPKCEDCQSLVKPDIVFFGESLPARFFSCMQSDFLKVDLLLVMGTSLQVQPFASLISKAPLSTPRLLINKEKAGQSDPFLGMIMGLGGGMDFDSKKAYRDVAWLGECDQGCLALAELLGWKKELEDLVRREHASIDAQSGAGVPNPSTSASPKKSPPPAKDEARTTEREKPQ
B2: recombinant yeast Hst2p (protein)
chain: MSVSTASTEMSVRKIAAHMKSNPNAKVIFMVGAGISTSCGIPDFRSPGTGLYHNLARLKLPYPEAVFDVDFFQSDPLPFYTLAKELYPGNFRPSKFHYLLKLFQDKDVLKRVYTQNIDTLERQAGVKDDLIIEAHGSFAHCHCIGCGKVYPPQVFKSKLAEHPIKDFVKCDVCGELVKPAIVFFGEDLPDSFSETWLNDSEWLREKITTSGKHPQQPLVIVVGTSLAVYPFASLPEEIPRKVKRVLCNLETVGDFKANKRPTDLIVHQYSDEFAEQLVEELGWQEDFEKILTAQGGMGDNSKEQLLEIVHDLENLSLDQSEHESADKKDKKLQRLNGHDSDEDGASNSSSSQKAAKE

Experiments:
[1] = molecular target: T1, 9-amino acid synthetic alpha-tubulin …
[2] = molecular target: monoacetylated histone H3 peptide …(AcK)APRKQL, acetylated on lysine-14
[3] = molecular target: PCAF-acetylated calf thymus core histones

| Protein | V/K, deacetylation of tubulin peptide, HPLC [1] | fold preference for tubulin peptide relative to Hst2p (kcat and V/K) [1] | kcat (printed 'kea'), deacetylation of tubulin peptide, HPLC [1] | kcat (printed 'km values'), deacetylation of acetylated H3 peptide [2] | apparent V/K for deacetylation of core histones, fold over SIRT2 [3] | fold preference for H3 peptide relative to SIRT2 (V/K and Km) [2] |
| --- | --- | --- | --- | --- | --- | --- |
| B1 | 894 ± 100 M⁻¹ s⁻¹ | This difference was 60-fold | 0.144 ± 0.005 s⁻¹ | The km values (˜0.2 s^-1) were similar between the two enzymes |  |  |
| B2 | 14.9 M⁻¹ s⁻¹ |  | 0.00254 ± 0.0003 s⁻¹ | The km values (˜0.2 s^-1) were similar between the two enzymes | Hst2p exhibited a 7-fold higher V/K value than SIRT2 | ˜200-fold stronger preference for H3 peptide relative to SIRT2 |
